Assay results reported in article PMC10227085, “OsMADS17 simultaneously increases grain number and grain weight in rice”.

Key:
[1] = biological target: MBP-OsMADS17 (Oryza sativa, UniProt Q7XUN2 1-249); experiment: EMSA; cold probe competition at 20x and 200x; 20 uL with 2 uL biotin probe, 5 ug protein, 2 uL 10x binding buffer (composition not given), 1 uL 50% glycerol; 30 min at room temperature; 6% native PAGE, 0.5x TBE; details: protein: recombinant; tags: N-terminal MBP; chain copies: 2; blunt
[2] = biological target: MBP-OsMADS1 (Oryza sativa, UniProt Q10PZ9 1-257); experiment: as above; details: protein: recombinant; tags: N-terminal MBP; chain copies: 2; blunt
MBP-OsMADS1, sequence (Q10PZ9 whole entry): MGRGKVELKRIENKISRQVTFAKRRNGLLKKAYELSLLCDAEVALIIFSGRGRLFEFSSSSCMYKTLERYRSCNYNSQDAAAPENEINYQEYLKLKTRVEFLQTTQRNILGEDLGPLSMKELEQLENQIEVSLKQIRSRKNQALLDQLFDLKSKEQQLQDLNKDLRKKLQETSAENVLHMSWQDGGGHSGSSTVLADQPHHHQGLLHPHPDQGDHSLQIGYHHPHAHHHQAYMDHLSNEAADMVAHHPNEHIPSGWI

MBP-OsMADS17, sequence (Q7XUN2 whole entry): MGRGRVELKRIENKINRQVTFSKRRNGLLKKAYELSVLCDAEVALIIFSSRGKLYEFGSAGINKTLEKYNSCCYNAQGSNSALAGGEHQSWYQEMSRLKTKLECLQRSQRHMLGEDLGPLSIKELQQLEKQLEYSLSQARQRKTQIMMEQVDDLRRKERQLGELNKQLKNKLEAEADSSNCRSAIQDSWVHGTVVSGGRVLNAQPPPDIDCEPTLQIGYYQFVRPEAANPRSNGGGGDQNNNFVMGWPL

B1: EMSA-probe-OsAP2-39 (dsDNA)
DNA 1: AAACCTTACCAAATTTTGGTAAAGTTGCCAAAAAAATGGCTATATTTA
DNA 2: TAAATATAGCCATTTTTTTGGCAACTTTACCAAAATTTGGTAAGGTTT
Q: Does B1 bind [1]?
A: binds

B2: EMSA-probe-OsMADS17 (dsDNA)
DNA 1: TCTCTGCTCCTTTATATGGGGTTACA
DNA 2: TGTAACCCCATATAAAGGAGCAGAGA
Q: Does B2 bind [2]?
A: binds
